± gives the standard deviation of the averaged measurements.
tested on: Saccharomyces cerevisiae; experiment: protein stability index of tFT-peptide fusion (C-terminal peptide) (PSI (0-1 scale)); higher = more stable (slower turnover); conditions: genetic background: wild type; temperature: 30 C
Experimental: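 Multiplexed protein stability (MPS) profiling in S. cerevisiae. Random 12-aa peptides (tFT-X12 library) are fused to the C-terminus of a sfGFP-mCherry tandem fluorescent timer, after mCherry and a GGGS linker. Cells are FACS-sorted into 8 mCherry/sfGFP bins and deep-sequenced. The protein stability index (PSI) is the read-weighted bin average, scaled from 0 (unstable) to 1 (stable). Only peptides with >10 reads are reported; cells were grown at 30 °C in SC-His with glucose.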
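Also: PSI is a weighted mean of sequencing reads over stability bins, variants kept only with over 10 reads, mCherry proximal and sfGFP distal, peptide attached via GGGS linker.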

Row | Sequence | protein stability index
1 | GGVGRGGIRVMG | 0.629 ± 0.062
2 | GGVGRSWQEVGG | 0.72 ± 0.025
3 | GGVGVYSVMVGG | 0.575 ± 0.015
4 | GGVLERARRRGG | 0.708 ± 0.2
5 | GGVLERSRRRGG | 0.741 ± 0.17
6 | GGVLSAGSWSGG | 0.665 ± 0.019
7 | GGVNRPRKSTAT | 0.6977 ± 0.0063
8 | GGVSRRVNGREA | 0.708 ± 0.008
9 | GGWGCWQAGGLT | 0.7444 ± 0.0016
10 | GGWGGGGLGGAF | 0.741 ± 0.037
11 | GGWPREVVGRGG | 0.671 ± 0.09
12 | GGWSGRFVTVGR | 0.713 ± 0.066
13 | GGWWGRAGENTR | 0.729 ± 0.075
14 | GGWWGWAGENTR | 0.7 ± 0.048
15 | GGYATYWVGVRL | 0.697 ± 0.036
16 | GHGGSKIYCLVD | 0.637 ± 0.062
17 | GHLRPFPPPLLP | 0.748 ± 0.089
18 | GIFRTRGFPPVG | 0.694 ± 0.088
19 | GIGLSVGDVLGC | 0.73 ± 0.037
20 | GIIDGGTISRNK | 0.692 ± 0.013
21 | GIISLTPRGCTR | 0.92 ± 0.11
22 | GINEGRAISDDW | 0.725 ± 0.021
23 | GIPEFGYLYLVT | 0.613 ± 0.017
24 | GIPYGWLLCFPR | 0.813 ± 0.021
25 | GIRAEPSGGQAE | 0.692 ± 0.057

Row | Sequence | protein stability index
26 | GISASYTASSSG | 0.642 ± 0.067
27 | GISPFYTALSGF | 0.754 ± 0.03
28 | GIVFRGVVTWLL | 0.6 ± 0.0085
29 | GIVRGFGGGGEE | 0.662 ± 0.026
30 | GKAGGNREGTGT | 0.689 ± 0.048
31 | GKCTGSAEMRPQ | 0.627 ± 0.079
32 | GKGEERGVATRT | 0.657 ± 0.0076
33 | GKIEVNTRIPGG | 0.646 ± 0.078
34 | GKNKKSKTLIKQ | 0.669 ± 0.029
35 | GKRAKKKNTKRY | 0.662 ± 0.14
36 | GKRHICFNHSGE | 0.6966 ± 0.0045
37 | GKRKKERGGGER | 0.711 ± 0.093
38 | GKRRCRREVERK | 0.695 ± 0.018
39 | GKRTGRKKRRKR | 0.638 ± 0.095
40 | GKRWPSINKGPV | 0.6851 ± 0.0051
41 | GKVGGQGGKGVV | 0.765 ± 0.13
42 | GLACWALLTCNR | 0.726 ± 0.015
43 | GLCPALQFPLHE | 0.68 ± 0.024
44 | GLCRRLDRQLAN | 0.6787 ± 0.0026
45 | GLFAPVGLGFGL | 0.724 ± 0.012
46 | GLGACMVNELLG | 0.648 ± 0.018
47 | GLGGGVGGWLVV | 0.705 ± 0.041
48 | GLGGRFSWVDGV | 0.756 ± 0.012
49 | GLGGRVWSDMGG | 0.745 ± 0.11
50 | GLGTIYGGEWWW | 0.759 ± 0.085

Row | Sequence | protein stability index
51 | GLGWGGVGVAGV | 0.705 ± 0.076
52 | GLKVVENWIECA | 0.555 ± 0.044
53 | GLNPPDPYPVSF | 0.754 ± 0.11
54 | GLPLPPPHPFSL | 0.7793 ± 0.0021
55 | GLPPPAPRRPDL | 0.664 ± 0.0077
56 | GLPSSYLSALFR | 0.708 ± 0.029
57 | GLQFRPFCVLEL | 0.634 ± 0.013
58 | GLSPPLCSTPSR | 0.736 ± 0.0092
59 | GLSWTVDDGHGG | 0.683 ± 0.039
60 | GLVGGLCIGRLV | 0.672 ± 0.024
61 | GLVVCDGGGVGC | 0.684 ± 0.14
62 | GLWIRAEISLVS | 0.575 ± 0.016
63 | GLYCDDSYPRPH | 0.666 ± 0.1
64 | GMCWTEGNTAVL | 0.697 ± 0.06
65 | GMDGRGGGGSVV | 0.723 ± 0.039
66 | GMLSIHWNIGGT | 0.725 ± 0.014
67 | GMRGGGGWCRGW | 0.671 ± 0.043
68 | GMRILRLIHVIP | 0.571 ± 0.031
69 | GMSRLFTYRAAS | 0.72 ± 0.0091
70 | GMTYWFCSFPFF | 0.686 ± 0.04
71 | GMVTCTSPRCHK | 0.694 ± 0.016
72 | GNFDRVSMTKFR | 0.73 ± 0.035
73 | GNSGAFTPSTQW | 0.687 ± 0.055
74 | GPAPAPPALSSC | 0.745 ± 0.0089
75 | GPCFPRRSAPSD | 0.67 ± 0.046

Row | Sequence | protein stability index
76 | GPCSSMFGLRYT | 0.672 ± 0.033
77 | GPDSSYLITPRR | 0.755 ± 0.065
78 | GPEAVARIFDDE | 0.708 ± 0.0095
79 | GPFHILSSATRP | 0.705 ± 0.054
80 | GPGGVGVTSGGK | 0.679 ± 0.062
81 | GPGSCPVRLCGF | 0.661 ± 0.0074
82 | GPGVFGGFRTEK | 0.648 ± 0.056
83 | GPLVGGDGRWVG | 0.706 ± 0.011
84 | GPPPAWALCYPL | 0.601 ± 0.023
85 | GPPPLRLWPLPV | 0.618 ± 0.079
86 | GPPPPLFAPWPF | 0.656 ± 0.027
87 | GPPRDLARKAGL | 0.708 ± 0.065
88 | GPRGGRLSWAPG | 0.62172 ± 0.00044
89 | GPRVLCNCHLRD | 0.688 ± 0.0083
90 | GPSATPPGPGLR | 0.792 ± 0.052
91 | GPSVWRPSESLV | 0.748 ± 0.03
92 | GPTPPRSPPAVS | 0.646 ± 0.055
93 | GPTPSVKGDRDT | 0.632 ± 0.044
94 | GPVAYSMDILVE | 0.66 ± 0.058
95 | GPVHVRGVGFGF | 0.73 ± 0.02
96 | GPVRIDSPFKSA | 0.733 ± 0.017
97 | GPVVAGRLWLWV | 0.641 ± 0.046
98 | GQCHYSSFPVRQ | 0.732 ± 0.011
99 | GQCRTELVGLWE | 0.664 ± 0.13
100 | GQEGQIPPGNVH | 0.709 ± 0.011

Row | Sequence | protein stability index
101 | GQIVFDNSGSRW | 0.6955 ± 0.0028
102 | GQKKARGRGGGM | 0.737 ± 0.0077
103 | GQRKQKIKKKRK | 0.647 ± 0.16
104 | GQRTKSHSRGGP | 0.648 ± 0.025
105 | GQVACLVSREYT | 0.69 ± 0.018
106 | GQVCSWRCVCYL | 0.6741 ± 0.0065
107 | GRAVPKTHPGNL | 0.7686 ± 0.0037
108 | GRCIQHPYKVNI | 0.679 ± 0.017
109 | GRDFASNFRQLG | 0.718 ± 0.026
110 | GRDKLNEDRDKV | 0.647 ± 0.0095
111 | GRDPARPRPLAP | 0.677 ± 0.046
112 | GREEKQGAENRT | 0.65 ± 0.018
113 | GRFVTRAWARSW | 0.639 ± 0.018
114 | GRGEIQDRRCRG | 0.668 ± 0.049
115 | GRGFGFDITISS | 0.712 ± 0.098
116 | GRGGIGDGGPVW | 0.6395 ± 0.00092
117 | GRGGYGKESLYC | 0.627 ± 0.031
118 | GRGRFMPRDWYW | 0.708 ± 0.028
119 | GRGSGIAMGVWV | 0.801 ± 0.19
120 | GRGVQWRAVGWE | 0.748 ± 0.041
121 | GRGVVGLWVSGT | 0.699 ± 0.021
122 | GRGWGWALGWCG | 0.698 ± 0.0095
123 | GRIMRVPNENLT | 0.696 ± 0.22
124 | GRKGVIAELIKI | 0.659 ± 0.11
125 | GRKTRSPFLVLM | 0.5707 ± 0.002

Row | Sequence | protein stability index
126 | GRLRLDAAGCMW | 0.675 ± 0.048
127 | GRNCGHSCANRP | 0.696 ± 0.027
128 | GRPFCLGVKMFL | 0.673 ± 0.035
129 | GRPGPSSPFLLP | 0.702 ± 0.052
130 | GRQKIESSEAQT | 0.666 ± 0.022
131 | GRRAGGTGAPSR | 0.642 ± 0.016
132 | GRRDVTFGTAFF | 0.753 ± 0.052
133 | GRRGGRLSWAPG | 0.659 ± 0.017
134 | GRRHNPRTSSAQ | 0.756 ± 0.075
135 | GRRLVHKVDWSL | 0.666 ± 0.043
136 | GRRNVGLKNSGL | 0.645 ± 0.028
137 | GRRRGGAVVEGV | 0.678 ± 0.01
138 | GRRVRAPADFKS | 0.587 ± 0.02
139 | GRSMWFIEFGLG | 0.7578 ± 0.0057
140 | GRSQGIWVSRGE | 0.683 ± 0.028
141 | GRTFPLATAPFL | 0.687 ± 0.085
142 | GRVFRGRNGRCM | 0.7443 ± 0.0067
143 | GRWEGLRGLGVG | 0.647 ± 0.012
144 | GRWRVLREVGAS | 0.664 ± 0.01
145 | GRYLIGKNKRVI | 0.687 ± 0.011
146 | GSAGSAVRNVVS | 0.647 ± 0.051
147 | GSANIDQEGVQY | 0.781 ± 0.091
148 | GSFPPPARARLS | 0.677 ± 0.025
149 | GSFPRLPPSKSF | 0.724 ± 0.14
150 | GSFYGAVYVVPV | 0.669 ± 0.03

Row | Sequence | protein stability index
151 | GSGDRSGCGWRG | 0.678 ± 0.025
152 | GSGELYMGRLVE | 0.676 ± 0.047
153 | GSGTTGSLSYGV | 0.695 ± 0.02
154 | GSIVVVGVVEGG | 0.729 ± 0.066
155 | GSIWGVGWGQGV | 0.682 ± 0.11
156 | GSLFVNRNCTVS | 0.697 ± 0.19
157 | GSLPQLRAACRA | 0.566 ± 0.023
158 | GSMRRSSVTLSA | 0.709 ± 0.065
159 | GSMTGYVRVGEG | 0.57 ± 0.0064
160 | GSNMTQAMTAGG | 0.656 ± 0.027
161 | GSNQRRKGEHKP | 0.623 ± 0.036
162 | GSNQYLNNTYLI | 0.64768 ± 0.00039
163 | GSPSPLIALSRK | 0.689 ± 0.0073
164 | GSRGGVAYGRVG | 0.741 ± 0.04
165 | GSRGHLGRGGPG | 0.727 ± 0.017
166 | GSRSGPARTTGR | 0.668 ± 0.024
167 | GSRTHSMEDTTG | 0.646 ± 0.0098
168 | GSSPPSARVRLF | 0.763 ± 0.03
169 | GSSPVWRVAGAG | 0.721 ± 0.061
170 | GSSRRWPGGRTI | 0.671 ± 0.073
171 | GSSVRGSLGREI | 0.711 ± 0.028
172 | GSVGFRTGRHLV | 0.615 ± 0.063
173 | GSVLFPLPFRPF | 0.64 ± 0.11
174 | GSVNGDTVGTQQ | 0.708 ± 0.013
175 | GSVSGCVGVMRG | 0.641 ± 0.01

Row | Sequence | protein stability index
176 | GSWRSFHVWYNS | 0.571 ± 0.042
177 | GTAFDGGELSEG | 0.739 ± 0.045
178 | GTGSEGVALRSG | 0.6697 ± 0.001
179 | GTGSVHYHRSGL | 0.676 ± 0.016
180 | GTGTNGPSSAKL | 0.7399 ± 0.0056
181 | GTHGVGGNIDLT | 0.648 ± 0.013
182 | GTLGYALPTPYE | 0.6736 ± 0.0059
183 | GTQSGGGGGKGG | 0.683 ± 0.044
184 | GTRGVFEVCMDG | 0.704 ± 0.025
185 | GTYGLCVWGRYL | 0.633 ± 0.056
186 | GTYPGAGWRYEW | 0.694 ± 0.037
187 | GVAGWGTVVGAQ | 0.712 ± 0.07
188 | GVAISSGNHINH | 0.654 ± 0.12
189 | GVAWGSGVGMMW | 0.718 ± 0.029
190 | GVCAVCRLGLVA | 0.5574 ± 0.00072
191 | GVCGGVGGWGVA | 0.698 ± 0.019
192 | GVCPPAGDAGGV | 0.711 ± 0.018
193 | GVEGDPESKGRV | 0.696 ± 0.068
194 | GVFEGLVYGGLC | 0.719 ± 0.012
195 | GVFVVGLSCSLR | 0.5521 ± 0.0048
196 | GVGAERCFVGVV | 0.681 ± 0.077

From the supplement of paper PMC10724198
